Experimental data: patent publication US7078382 (dated 2006)
Positions count from the first letter of the chain named.

B1: LK-VRB-2f (ligand)
chain: APMAEGGGQNHHEVVKFMDVYQRSYCHPIETLVDIFQEYPDEIEYIFKPSCVPLMRCGGCCNSEMRECVPTEESNITMQIMRIKPHQGQHIGEMSFLQHNKCECRPKKDRARQENPCGPCSERRKHLFVQDPQTCKCSCKNTDSRCKARQLELNERTCRCDKPRR
notes: also called KDR-full
B2: native VEGF (8-109) (ligand)
chain: GQNHHEVVKFMDVYQRSYCHPIETLVDIFQEYPDEIEYIFKPSCVPLMRCGGCCNDEGLECVPTEESNITMQIMRIKPHQGQHIGEMSFLQHNKCECRPKKD
B3: LK-VRB-17s (ligand)
chain: APMAEGGGQNHHEVVKFEDVLRRSYCHPIETLVDIFQEYPDEIEYIFKPSCVPLMRCGGCCNSEMRECVPTEESNITMQIMRIKPHQGQHIGEMSFLQHNKCECRPKKD
B4: LK-VRB-18s (ligand)
chain: B3 chain with R22Q, Y25S
B5: LK-VRB-3s (ligand)
chain: B3 chain with F17I, L21F, R22K, Y25S, S63D, M65G, R66L
B6: LK-VRB-11s (ligand)
chain: B3 chain with R22Q
B7: LK-VRB-16s (ligand)
chain: B3 chain with E18M, L21Y, Y25S
B8: LK-VRB-15s (ligand)
chain: B3 chain with E18M, R22Q, Y25S
B9: LK-VRB-12s (ligand)
chain: B3 chain with L21Y
B10: LK-VRB-7s* (ligand)
chain: B3 chain with L21Y, R22Q
B11: LK-VRB-26s (ligand)
chain: B3 chain with Y25S, S63D
B12: LK-VRB-13s (ligand)
chain: B3 chain with L21Y, R22Q, Y25S
B13: LK-VRB-21s (ligand)
chain: B3 chain with Y25S, M65G, R66L
B14: LK-VRB-22s (ligand)
chain: B3 chain with Y25S, S63D, R66L
B15: LK-VRB-8s* (ligand)
chain: B3 chain with E18M, R22Q
B16: LK-VRB-14s (ligand)
chain: B3 chain with E18M
B17: LK-VRB-9s (ligand)
chain: B3 chain with E18M, L21Y
B18: LK-VRB-1s* (ligand)
chain: B3 chain with Y25S, S63D, M65G, R66L
B19: LK-VRB-2s* (ligand)
chain: B3 chain with E18M, L21Y, R22Q
B20: LK-VRB-10s (ligand)
chain: B3 chain with E18M, L21Y, R22Q, Y25S
B21: LK-VRB-4s (ligand)
chain: B3 chain with F17I, L21F, R22E, Y25I, S63D, M65G, R66L
B22: LK-VRB-25s (ligand)
chain: B3 chain with Y25S, M65G
B23: LK-VRB-20s (ligand)
chain: B3 chain with E18M, Y25S
B24: LK-VRB-23s (ligand)
chain: B3 chain with Y25S, S63D, M65G
B25: LK-VRB-24s (ligand)
chain: B3 chain with Y25S, R66L

How the values were obtained:
[1] = target: KDR receptor on human umbilical vein endothelial cells (HUVEC) (human, UniProt P35968 20-1356); assay: cell-based or functional assay
Flt-IgG = target: T1, Flt-IgG (human, UniProt P17948 27-758, limits assumed); assay: competition ELISA, biotinylated native VEGF as tracer, Flt-IgG captured by anti-human Fc
T1 construct: Only described as 'a chimeric Flt-human Fc molecule'; captured by rabbit F(ab')2 to human IgG Fc; also called chimeric Flt-human Fc molecule; not shown: human IgG Fc

[2] = target: KDR receptor with a gD tag at the N-terminus, on CHO cells (UniProt P35968 20-1356); assay: cell-based or functional assay
KDR (1-3) = target: T2, KDR (1-3) (UniProt P35968 20-327, limits assumed); assay: competition ELISA, biotinylated native VEGF (8-109) as tracer, KDR (1-3) captured by mAb MAKD5
T2 construct: domain: KDR (1-3); Soluble KDR (1-3) at 1 ug/ml, captured on the plate by anti-KDR monoclonal antibody MAKD5; also called KDR (1-3) monomer

[3] = target: FLT-1 receptor (RIA of Example 11) (UniProt P17948 27-758, limits assumed); assay: RIA essentially as in Muller et al. 1997
[4] = target: KDR receptor (RIA of Example 11) (UniProt P35968 20-764, limits assumed); assay: RIA essentially as in Muller et al. 1997
KDR receptor (RIA of Example 11), sequence (P35968 20-764 limits assumed): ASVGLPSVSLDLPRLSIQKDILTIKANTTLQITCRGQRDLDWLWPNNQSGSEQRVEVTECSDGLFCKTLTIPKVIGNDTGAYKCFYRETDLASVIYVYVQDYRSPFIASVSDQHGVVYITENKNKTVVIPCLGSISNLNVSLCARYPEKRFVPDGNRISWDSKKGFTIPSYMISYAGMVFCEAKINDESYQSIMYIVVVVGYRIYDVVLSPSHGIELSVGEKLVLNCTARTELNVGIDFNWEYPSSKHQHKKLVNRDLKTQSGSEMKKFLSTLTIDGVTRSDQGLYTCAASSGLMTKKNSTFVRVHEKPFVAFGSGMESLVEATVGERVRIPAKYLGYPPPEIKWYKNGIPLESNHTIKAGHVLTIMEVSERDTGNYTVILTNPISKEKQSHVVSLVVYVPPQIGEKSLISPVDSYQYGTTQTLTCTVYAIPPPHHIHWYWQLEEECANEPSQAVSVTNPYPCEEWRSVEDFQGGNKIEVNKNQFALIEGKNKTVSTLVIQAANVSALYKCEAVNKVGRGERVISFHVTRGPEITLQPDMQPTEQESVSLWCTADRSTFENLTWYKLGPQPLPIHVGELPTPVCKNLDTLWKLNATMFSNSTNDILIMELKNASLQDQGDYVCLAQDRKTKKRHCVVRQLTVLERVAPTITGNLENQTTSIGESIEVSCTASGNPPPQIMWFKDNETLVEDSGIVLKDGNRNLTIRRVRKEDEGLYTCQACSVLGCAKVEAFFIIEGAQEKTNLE

T2 sequence (P35968 20-327 limits assumed): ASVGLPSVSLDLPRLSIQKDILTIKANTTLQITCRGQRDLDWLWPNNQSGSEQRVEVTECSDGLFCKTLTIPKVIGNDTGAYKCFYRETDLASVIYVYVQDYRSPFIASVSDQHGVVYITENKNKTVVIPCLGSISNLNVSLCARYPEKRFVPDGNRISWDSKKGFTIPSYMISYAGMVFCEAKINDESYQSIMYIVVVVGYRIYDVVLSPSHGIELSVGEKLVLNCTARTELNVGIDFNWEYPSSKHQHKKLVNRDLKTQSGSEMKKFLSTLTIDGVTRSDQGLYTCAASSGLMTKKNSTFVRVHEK
T1 sequence (P17948 27-758 limits assumed): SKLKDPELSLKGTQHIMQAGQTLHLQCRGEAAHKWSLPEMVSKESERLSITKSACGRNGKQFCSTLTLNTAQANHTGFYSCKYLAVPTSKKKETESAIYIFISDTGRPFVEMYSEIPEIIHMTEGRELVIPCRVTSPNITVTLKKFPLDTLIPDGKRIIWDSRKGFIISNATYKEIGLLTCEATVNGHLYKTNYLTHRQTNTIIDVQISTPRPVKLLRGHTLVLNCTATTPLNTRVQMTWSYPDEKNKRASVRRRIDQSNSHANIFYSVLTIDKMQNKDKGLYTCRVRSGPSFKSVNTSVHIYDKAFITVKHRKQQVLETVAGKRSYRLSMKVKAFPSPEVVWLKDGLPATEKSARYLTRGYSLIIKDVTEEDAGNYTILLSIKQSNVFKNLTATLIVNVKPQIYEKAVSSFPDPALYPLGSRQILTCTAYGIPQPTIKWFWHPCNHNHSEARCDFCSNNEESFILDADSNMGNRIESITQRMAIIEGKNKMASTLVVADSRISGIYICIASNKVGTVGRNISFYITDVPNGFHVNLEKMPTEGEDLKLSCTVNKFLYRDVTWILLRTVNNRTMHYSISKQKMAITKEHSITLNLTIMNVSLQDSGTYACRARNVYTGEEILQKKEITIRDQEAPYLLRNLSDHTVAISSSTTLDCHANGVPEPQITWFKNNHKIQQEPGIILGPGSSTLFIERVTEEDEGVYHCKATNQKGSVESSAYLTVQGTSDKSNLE
KDR receptor on human umbilical vein endothelial cells (HUVEC), sequence (P35968 20-1356): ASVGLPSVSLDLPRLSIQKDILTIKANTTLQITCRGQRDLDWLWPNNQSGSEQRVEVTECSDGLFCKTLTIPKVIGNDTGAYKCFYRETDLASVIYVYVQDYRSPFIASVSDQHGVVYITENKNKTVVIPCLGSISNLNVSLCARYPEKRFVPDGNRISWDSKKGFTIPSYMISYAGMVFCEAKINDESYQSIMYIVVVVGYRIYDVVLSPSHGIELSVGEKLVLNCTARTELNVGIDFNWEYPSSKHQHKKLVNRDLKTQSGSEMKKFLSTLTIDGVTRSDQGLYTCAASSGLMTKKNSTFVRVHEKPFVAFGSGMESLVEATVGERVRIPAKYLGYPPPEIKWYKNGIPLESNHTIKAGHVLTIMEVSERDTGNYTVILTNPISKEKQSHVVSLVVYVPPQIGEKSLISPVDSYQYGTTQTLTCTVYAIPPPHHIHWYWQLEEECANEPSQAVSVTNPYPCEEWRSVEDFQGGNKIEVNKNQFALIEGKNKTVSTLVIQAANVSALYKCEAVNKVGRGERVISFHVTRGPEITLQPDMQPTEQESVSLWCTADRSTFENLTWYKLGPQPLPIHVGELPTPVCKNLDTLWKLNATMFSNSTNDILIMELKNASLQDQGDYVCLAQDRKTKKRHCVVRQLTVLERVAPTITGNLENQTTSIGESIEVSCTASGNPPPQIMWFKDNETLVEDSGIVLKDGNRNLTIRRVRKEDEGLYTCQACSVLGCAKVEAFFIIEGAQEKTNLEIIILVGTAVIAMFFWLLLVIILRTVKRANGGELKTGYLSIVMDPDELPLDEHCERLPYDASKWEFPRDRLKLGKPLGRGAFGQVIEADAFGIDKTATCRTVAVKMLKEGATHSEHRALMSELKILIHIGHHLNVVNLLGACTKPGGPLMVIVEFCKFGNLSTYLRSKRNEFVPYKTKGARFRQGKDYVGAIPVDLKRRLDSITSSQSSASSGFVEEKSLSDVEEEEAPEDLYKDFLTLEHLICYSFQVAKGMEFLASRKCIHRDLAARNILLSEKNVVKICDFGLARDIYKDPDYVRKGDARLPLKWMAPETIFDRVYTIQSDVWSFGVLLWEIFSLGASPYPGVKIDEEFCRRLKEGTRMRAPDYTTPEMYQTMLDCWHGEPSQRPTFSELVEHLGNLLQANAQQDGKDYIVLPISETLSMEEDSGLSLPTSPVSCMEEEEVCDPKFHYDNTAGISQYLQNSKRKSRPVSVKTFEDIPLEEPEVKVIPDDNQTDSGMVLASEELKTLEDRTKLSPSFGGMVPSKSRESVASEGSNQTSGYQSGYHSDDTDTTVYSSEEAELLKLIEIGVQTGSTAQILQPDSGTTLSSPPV
FLT-1 receptor (RIA of Example 11), sequence (P17948 27-758 limits assumed): as the sequence (P17948 27-758 limits assumed) above

| Binder | IC50 (KDR (1-3)) [nM] | Relative Binding Affinity (KDR (1-3)) | other results |
| --- | --- | --- | --- |
| B1 |  |  | Endothelial Cell Proliferation Activity (HUVEC, 3H-thymidine), concentration [1]: 0.05 nM; IC50 (Flt-IgG): 19 nM |
| B2 |  |  | Endothelial Cell Proliferation Activity (HUVEC, 3H-thymidine), concentration [1]: 0.5 nM; Phosphorylation-Inducing Activity (KIRA), concentration at midpoint [2]: 2 nM; IC50 (Flt-IgG): 0.42 nM |
| B3 | 3 | 3 fold of native VEGF (8-109) |  |
| B4 | 130 | 130 fold of native VEGF (8-109) |  |
| B5 | 1 | 1 fold of native VEGF (8-109) | Phosphorylation-Inducing Activity (KIRA), concentration at midpoint [2]: 2 nM; Phosphorylation-Inducing Activity (KIRA), ratio to native VEGF (8-109) [2]: 1 fold of native VEGF (8-109); IC50 (Flt-IgG): 170 nM; Relative Binding Affinity (Flt-IgG): 400 fold of native VEGF (8-109) |
| B6 | 2 | 2 fold of native VEGF (8-109) |  |
| B7 | 0.6 | 0.6 fold of native VEGF (8-109) |  |
| B8 | 2 | 2 fold of native VEGF (8-109) |  |
| B9 | 0.4 | 0.4 fold of native VEGF (8-109) |  |
| B10 | 1 | 1 fold of native VEGF (8-109) | Endothelial Cell Proliferation Activity (HUVEC, 3H-thymidine), concentration [1]: 0.5 nM; Endothelial Cell Proliferation Activity (HUVEC, 3H-thymidine), ratio to native VEGF (8-109) [1]: 1 fold of native VEGF (8-109); Relative Binding Affinity (Flt-IgG): > 15000 fold of native VEGF (8-109) |
| B11 | 23 | 23 fold of native VEGF (8-109) |  |
| B12 | 14 | 14 fold of native VEGF (8-109) |  |
| B13 | 3 | 3 fold of native VEGF (8-109) |  |
| B14 | 4 | 4 fold of native VEGF (8-109) |  |
| B15 | 0.5 | 0.5 fold of native VEGF (8-109) | Endothelial Cell Proliferation Activity (HUVEC, 3H-thymidine), concentration [1]: 0.5 nM; Endothelial Cell Proliferation Activity (HUVEC, 3H-thymidine), ratio to native VEGF (8-109) [1]: 1 fold of native VEGF (8-109); Relative Binding Affinity (Flt-IgG): > 21000 fold of native VEGF (8-109) |
| B16 | 0.5 | 0.5 fold of native VEGF (8-109) |  |
| B17 | 0.5 | 0.5 fold of native VEGF (8-109) | Relative Binding Affinity (Flt-IgG): 300 fold of native VEGF (8-109) |
| B18 | 1 | 1 fold of native VEGF (8-109) | Relative Binding Affinity [3]: 14000 fold of native VEGF 165; Relative Binding Affinity [4]: 20 fold of native VEGF 165; Endothelial Cell Proliferation Activity (HUVEC, 3H-thymidine), concentration [1]: 0.1 nM; Endothelial Cell Proliferation Activity (HUVEC, 3H-thymidine), ratio to native VEGF (8-109) [1]: 0.2 fold of native VEGF (8-109); Phosphorylation-Inducing Activity (KIRA), concentration at midpoint [2]: 1 nM; Phosphorylation-Inducing Activity (KIRA), ratio to native VEGF (8-109) [2]: 0.5 fold of native VEGF (8-109); IC50 (Flt-IgG): 2700 nM; Relative Binding Affinity (Flt-IgG): 6000 fold of native VEGF (8-109) |
| B19 |  |  | Endothelial Cell Proliferation Activity (HUVEC, 3H-thymidine), concentration [1]: 0.05 nM; Phosphorylation-Inducing Activity (KIRA), concentration at midpoint [2]: 2 nM |
| B20 | 0.5 | 0.5 fold of native VEGF (8-109) |  |
| B21 | 1 | 1 fold of native VEGF (8-109) | Phosphorylation-Inducing Activity (KIRA), concentration at midpoint [2]: 1 nM; Phosphorylation-Inducing Activity (KIRA), ratio to native VEGF (8-109) [2]: 0.5 fold of native VEGF (8-109); IC50 (Flt-IgG): 100 nM; Relative Binding Affinity (Flt-IgG): 200 fold of native VEGF (8-109) |
| B22 | 4 | 4 fold of native VEGF (8-109) |  |
| B23 | 2 | 2 fold of native VEGF (8-109) |  |
| B24 | 11 | 11 fold of native VEGF (8-109) |  |
| B25 | 10 | 10 fold of native VEGF (8-109) |  |
